Assay results reported in article PMC4838857, “Tum/RacGAP functions as a switch activating the Pav/kinesin-6 motor” (Nature Communications, 2016).

What was measured:
[1] = molecular target: Pav/kinesin-6 (Pavarotti, Pav-KLP), full length with C-terminal 6xHis (Drosophila melanogaster); test: SEC + other: sucrose gradient sedimentation; hydrodynamic analysis (Siegel and Monty) of centralspindlin purified from co-expression: Superose 6 and 5-20% sucrose gradient, 4 °C
[2] = molecular target: Pav/kinesin-6 (Pavarotti, Pav-KLP), full length with C-terminal 6xHis (Drosophila melanogaster); test: SEC + other: sucrose gradient sedimentation; hydrodynamic analysis (Siegel and Monty) of the in vitro add-back: equal molar Pav/kinesin-6 and Tum/RacGAP, purified apart, mixed and incubated
[3] = molecular target: Pav/kinesin-6 (Pavarotti, Pav-KLP), full length with C-terminal 6xHis (Drosophila melanogaster); test: SEC + other: sucrose gradient sedimentation; hydrodynamic analysis (Siegel and Monty) of each protein alone: Stokes radius by Superose 6, S value on 5-20% sucrose gradient, 9 h at 55,000 r.p.m., 4 °C
[4] = molecular target: Pav/kinesin-6 (Pavarotti, Pav-KLP), full length with C-terminal 6xHis (Drosophila melanogaster)
[5] = molecular target: Tum/RacGAP (Tumbleweed, RacGAP50C), full length with C-terminal 6xHis (Drosophila melanogaster); test: SEC + other: sucrose gradient sedimentation; hydrodynamic analysis (Siegel and Monty) of the in vitro add-back: equal molar Pav/kinesin-6 and Tum/RacGAP, purified apart, mixed and incubated
[6] = molecular target: Tum/RacGAP (Tumbleweed, RacGAP50C), full length with C-terminal 6xHis (Drosophila melanogaster); test: SEC + other: sucrose gradient sedimentation; hydrodynamic analysis (Siegel and Monty) of each protein alone: Stokes radius by Superose 6, S value on 5-20% sucrose gradient, 9 h at 55,000 r.p.m., 4 °C
[7] = molecular target: Tum/RacGAP (Tumbleweed, RacGAP50C), full length, untagged, co-expressed with Pav/kinesin-6 (Drosophila melanogaster); test: SEC + other: sucrose gradient sedimentation; hydrodynamic analysis (Siegel and Monty) of centralspindlin purified from co-expression: Superose 6 and 5-20% sucrose gradient, 4 °C
[8] = substrate: Nc1ncnc2c1ncn2[C@@H]1O[C@H](COP(=O)(O)OP(=O)(O)OP(=O)(O)O)[C@@H](O)[C@H]1O; test: microtubule gliding velocity vs [MgATP], Lineweaver-Burk; assay type: biochemical, Drosophila melanogaster; conditions: motility-derived Km, saturating taxol-stabilised microtubules, Mg2+, pH 8.0, 150 mM KCl
Source text: microtubule gliding velocity vs [MgATP], Lineweaver-Burk on centralspindlin (co-expressed Pav/Tum)

## Pav/kinesin-6 (Pavarotti, Pav-KLP), full length with C-terminal 6xHis (natural protein)
[1]
  stoichiometry N: 2 subunits
[2]
  stoichiometry N: 2 subunits
[3]
  stoichiometry N: 2 subunits

## Tum1-65 fragment (1-65aa of Tum/RacGAP) with C-terminal 6xHis (domain or fragment)
[4]
  MT gliding velocity of Pav+Tum1-65 (in vitro add-back); Pav/kinesin-6 alone 0: 0.075 μm s^-1

## Tum/RacGAP (Tumbleweed, RacGAP50C), full length with C-terminal 6xHis (natural protein)
[4]
  MT gliding velocity of Pav+Tum (in vitro add-back, equal molar); Pav/kinesin-6 alone 0: 0.062 μm s^-1
[5]
  stoichiometry N: 2 subunits
[6]
  stoichiometry N: 2 subunits

## Tum/RacGAP (Tumbleweed, RacGAP50C), full length, untagged, co-expressed with Pav/kinesin-6 (natural protein)
[4]
  MT gliding velocity of centralspindlin (co-expressed Pav/Tum); Pav/kinesin-6 alone 0: 0.103 μm s^-1
[7]
  stoichiometry N: 2 subunits

B1: centralspindlin (co-expressed Pav/Tum) (Drosophila melanogaster) (protein)
chain: MKAVPRTPMRVVPKTPRVHQTVEKQRRDTSDKARDPVNVFCRVRPLQSDADLTSLRVKNSTTIALNPQDQLLQHHKPHNGAQREVQYIFKHVFQPDATQQDVYAAVAQPLVENLLKGRNSLLFTYGVTGSGKTYTMTGNLRHRGIMPRCLDVLFRTISDYQAKKFVFKPDKLNGFEILSEEDALLERQHEMNQRFAGSGRFAFRHKDSDPEIASQASVEPIPLLGLDEDNMYSVFVTYIEIYNNSVYDLLEDSGIQKTLQSKIIREDANRHMFVHGVTEVEVKTVEDALEVFQMGQKRKRMGHTVLNAESSRSHSVFNIRLVQAPTDSQGENVVQDRQNITVSQLSLVDLAGSERSSRTKNTGVRLREAGNINNSLMTLRTCLEYLRENQLAASNGLAPKKVPYRDSKITHMFKNYFDGEGQVSMIVCINPRIEDYDENMQVMKFAEMTQEVQIARATPMKQDLGLTPGRRKANKLFKIAVNNLNELGIPEAKDLEVDVGLVYSLGPDFPAYEMDSPEAQIKIRELMHYLEQRIEKRKKLRANLDIKCDSFRQMLMNLDRDNLQLRTELASLKAVYKQERDRSAALEKKVRIHESSIDVLNNTLSKQERQIEELTFKLNEKENMLTQKEHEKEKQKKKFSSKLAVESDKNKREFELKLREQRVKLQERMRIKDEKLRLVSNILQSEDLPSLPRSQSSENILNEKDRGAYTARTEESSVPATRTDIYATPRHGAAAANNRHRRSRSAGDKWLEHRAANPVPLGTIMQPYLKNRKSVTKLTDLKELTAHGTTKYCLVSQDADTDGDVETKLYKGNVIPTCGGGAQVVFNDVECLKQKSPVHSPTRKRPSNGNISALGGGAVPSTVTSAQDVASRCNLGIEGHSSKKSKI
notes: full-length Pav with C-terminal 6xHis co-expressed with untagged full-length Tum in Sf9 (baculovirus), Ni-NTA and Superose 6; heterotetramer 372 kDa (2 Pav 107 kDa + 2 Tum 65 kDa); cDNA errors in Tum corrected
[8]
  Km: 79 ± 13 µM
